This note sets out measurements from IntAct's records for PubMed 21209328.

Sequences and labels used below:
B1: PEP-dependent dihydroxyacetone kinase, ADP-binding subunit DhaL (Escherichia coli (strain K12)), P76014 (parent)
chain: MSLSRTQIVNWLTRCGDIFSTESEYLTGLDREIGDADHGLNMNRGFSKVVEKLPAIADKDIGFILKNTGMTLLSSVGGASGPLFGTFFIRAAQATQARQSLTLEELYQMFRDGADGVISRGKAEPGDKTMCDVWVPVVESLRQSSEQNLSVPVALEAASSIAESAAQSTITMQARKGRASYLGERSIGHQDPGATSVMFMMQMLALAAKE
partner: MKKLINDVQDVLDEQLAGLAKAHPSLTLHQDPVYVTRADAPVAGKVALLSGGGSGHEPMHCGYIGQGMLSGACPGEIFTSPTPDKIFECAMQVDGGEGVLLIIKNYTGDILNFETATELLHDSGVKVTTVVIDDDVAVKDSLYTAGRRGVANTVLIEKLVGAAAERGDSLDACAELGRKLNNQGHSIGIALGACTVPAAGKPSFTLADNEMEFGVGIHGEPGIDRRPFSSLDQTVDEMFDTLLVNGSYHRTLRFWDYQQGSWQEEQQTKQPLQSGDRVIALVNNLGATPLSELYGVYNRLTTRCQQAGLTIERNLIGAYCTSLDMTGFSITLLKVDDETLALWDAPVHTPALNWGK

This assay covers variants of B1. Particulars: with dhak_ecoli dhaK.
As for MSLSRTQIVNWLTRCGDIFSTESEYLTGLDREIGDADHGLNMNRGFSKVVEKLPAIADKDIGFILKNTGMTLLSSVGGASGPLFGTFFIRAAQATQARQSLTLEELYQMFRDGADGVISRGKAEPGDKTMCDVWVPVVESLRQSSEQNLSVPVALEAASSIAESAAQSTITMQARKGEASYLGERSIGHQDPGATSVMFMMQMLALAAKE [R178E], the “effect of a mutation on the interaction” value was “disrupting interaction strength”.
